{"source": "patent US20130336893A1", "about": "(Sanofi, published 2013)", "key": {"human GLP-1 receptor": {"biological_target": "human GLP-1 receptor (human, UniProt P43220 24-463)", "assay": "cell-based or functional assay"}, "human glucagon receptor": {"biological_target": "human glucagon receptor (human, UniProt P47871 26-477)", "sequence (P47871 26-477)": "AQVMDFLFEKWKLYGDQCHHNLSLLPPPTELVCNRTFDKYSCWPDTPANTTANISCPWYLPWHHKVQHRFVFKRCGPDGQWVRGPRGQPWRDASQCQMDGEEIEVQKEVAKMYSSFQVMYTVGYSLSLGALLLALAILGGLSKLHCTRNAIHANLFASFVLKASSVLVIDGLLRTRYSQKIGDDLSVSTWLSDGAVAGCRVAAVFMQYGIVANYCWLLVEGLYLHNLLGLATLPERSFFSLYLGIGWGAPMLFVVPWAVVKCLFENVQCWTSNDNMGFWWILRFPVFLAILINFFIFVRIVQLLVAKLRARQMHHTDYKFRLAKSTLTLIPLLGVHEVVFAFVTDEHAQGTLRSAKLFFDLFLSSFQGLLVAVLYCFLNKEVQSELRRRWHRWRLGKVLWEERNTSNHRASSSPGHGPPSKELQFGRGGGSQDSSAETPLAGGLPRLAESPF", "assay": "cell-based or functional assay"}}, "note": "*1 amine or outer side, *2 acyl side, *3 side chain or, on linkers, in order; H or OH if unused. Where no end group is shown, it is not given here. Side-chain parts run from the residue outwards. [ ]: non-standard residue; d: D form. The star is where a group is joined. γGlu = O=C(O)[C@H](CCC(=O)[*:2])N[*:1]; Palmitoyl = CCCCCCCCCCCCCCCC(=O)*; Propionyl = CCC(=O)*; βAla = NCCC(=O)O", "data": [{"binder": "H[dS]QGTFTSDLSKQMESRRAQDFIEWLKSGGPSSGAPPPSK([γGlu-Propionyl])-NH2", "note": "[SEQ ID NO: (106)]", "values": [{"measurement": "EC50 hGLP-1R (cAMP formation)", "setting": "human GLP-1 receptor", "value": 315, "unit": "pM"}, {"measurement": "EC50 hGlucagonR (cAMP formation)", "setting": "human glucagon receptor", "value": 1320, "unit": "pM"}]}, {"binder": "H[dS]QGTFTSDLSKQMESRAAQDFIEWLKSGGPSSGAPPPSK([γGlu-Palmitoyl])-NH2 (N-terminus assumed; SMILES CCCCCCCCCCCCCCCC(=O)N[C@@H](CCC(=O)NCCCC[C@H](NC(=O)[C@H](CO)NC(=O)[C@@H]1CCCN1C(=O)[C@@H]1CCCN1C(=O)[C@@H]1CCCN1C(=O)[C@H](C)NC(=O)CNC(=O)[C@H](CO)NC(=O)[C@H](CO)NC(=O)[C@@H]1CCCN1C(=O)CNC(=O)CNC(=O)[C@H](CO)NC(=O)[C@H](CCCCN)NC(=O)[C@H](CC(C)C)NC(=O)[C@H](Cc1c[nH]c2ccccc12)NC(=O)[C@H](CCC(=O)O)NC(=O)[C@@H](NC(=O)[C@H](Cc1ccccc1)NC(=O)[C@H](CC(=O)O)NC(=O)[C@H](CCC(N)=O)NC(=O)[C@H](C)NC(=O)[C@H](C)NC(=O)[C@H](CCCNC(=N)N)NC(=O)[C@H](CO)NC(=O)[C@H](CCC(=O)O)NC(=O)[C@H](CCSC)NC(=O)[C@H](CCC(N)=O)NC(=O)[C@H](CCCCN)NC(=O)[C@H](CO)NC(=O)[C@H](CC(C)C)NC(=O)[C@H](CC(=O)O)NC(=O)[C@H](CO)NC(=O)[C@@H](NC(=O)[C@H](Cc1ccccc1)NC(=O)[C@@H](NC(=O)CNC(=O)[C@H](CCC(N)=O)NC(=O)[C@@H](CO)NC(=O)[C@@H](N)Cc1c[nH]cn1)[C@@H](C)O)[C@@H](C)O)[C@@H](C)CC)C(N)=O)C(=O)O)", "note": "[SEQ ID NO: (103)]", "values": [{"measurement": "EC50 hGLP-1R (cAMP formation)", "setting": "human GLP-1 receptor", "value": 3.7, "unit": "pM"}, {"measurement": "EC50 hGlucagonR (cAMP formation)", "setting": "human glucagon receptor", "value": 45.9, "unit": "pM"}]}, {"binder": "H[dS]QGTFTSDLSKQMESRRAQDFIEWLKEGGPSSGKPPPSK([γGlu-Palmitoyl])-NH2 (N-terminus assumed; SMILES CCCCCCCCCCCCCCCC(=O)N[C@@H](CCC(=O)NCCCC[C@H](NC(=O)[C@H](CO)NC(=O)[C@@H]1CCCN1C(=O)[C@@H]1CCCN1C(=O)[C@@H]1CCCN1C(=O)[C@H](CCCCN)NC(=O)CNC(=O)[C@H](CO)NC(=O)[C@H](CO)NC(=O)[C@@H]1CCCN1C(=O)CNC(=O)CNC(=O)[C@H](CCC(=O)O)NC(=O)[C@H](CCCCN)NC(=O)[C@H](CC(C)C)NC(=O)[C@H](Cc1c[nH]c2ccccc12)NC(=O)[C@H](CCC(=O)O)NC(=O)[C@@H](NC(=O)[C@H](Cc1ccccc1)NC(=O)[C@H](CC(=O)O)NC(=O)[C@H](CCC(N)=O)NC(=O)[C@H](C)NC(=O)[C@H](CCCNC(=N)N)NC(=O)[C@H](CCCNC(=N)N)NC(=O)[C@H](CO)NC(=O)[C@H](CCC(=O)O)NC(=O)[C@H](CCSC)NC(=O)[C@H](CCC(N)=O)NC(=O)[C@H](CCCCN)NC(=O)[C@H](CO)NC(=O)[C@H](CC(C)C)NC(=O)[C@H](CC(=O)O)NC(=O)[C@H](CO)NC(=O)[C@@H](NC(=O)[C@H](Cc1ccccc1)NC(=O)[C@@H](NC(=O)CNC(=O)[C@H](CCC(N)=O)NC(=O)[C@@H](CO)NC(=O)[C@@H](N)Cc1c[nH]cn1)[C@@H](C)O)[C@@H](C)O)[C@@H](C)CC)C(N)=O)C(=O)O)", "note": "[SEQ ID NO: (104)]", "values": [{"measurement": "EC50 hGLP-1R (cAMP formation)", "setting": "human GLP-1 receptor", "value": 7.3, "unit": "pM"}, {"measurement": "EC50 hGlucagonR (cAMP formation)", "setting": "human glucagon receptor", "value": 28.7, "unit": "pM"}]}, {"binder": "H[dS]QGTFTSDLSKQMEEEAAQDFIEWLKAGGPSSGAPPPSK([γGlu-Palmitoyl])-NH2 (N-terminus assumed; SMILES CCCCCCCCCCCCCCCC(=O)N[C@@H](CCC(=O)NCCCC[C@H](NC(=O)[C@H](CO)NC(=O)[C@@H]1CCCN1C(=O)[C@@H]1CCCN1C(=O)[C@@H]1CCCN1C(=O)[C@H](C)NC(=O)CNC(=O)[C@H](CO)NC(=O)[C@H](CO)NC(=O)[C@@H]1CCCN1C(=O)CNC(=O)CNC(=O)[C@H](C)NC(=O)[C@H](CCCCN)NC(=O)[C@H](CC(C)C)NC(=O)[C@H](Cc1c[nH]c2ccccc12)NC(=O)[C@H](CCC(=O)O)NC(=O)[C@@H](NC(=O)[C@H](Cc1ccccc1)NC(=O)[C@H](CC(=O)O)NC(=O)[C@H](CCC(N)=O)NC(=O)[C@H](C)NC(=O)[C@H](C)NC(=O)[C@H](CCC(=O)O)NC(=O)[C@H](CCC(=O)O)NC(=O)[C@H](CCC(=O)O)NC(=O)[C@H](CCSC)NC(=O)[C@H](CCC(N)=O)NC(=O)[C@H](CCCCN)NC(=O)[C@H](CO)NC(=O)[C@H](CC(C)C)NC(=O)[C@H](CC(=O)O)NC(=O)[C@H](CO)NC(=O)[C@@H](NC(=O)[C@H](Cc1ccccc1)NC(=O)[C@@H](NC(=O)CNC(=O)[C@H](CCC(N)=O)NC(=O)[C@@H](CO)NC(=O)[C@@H](N)Cc1c[nH]cn1)[C@@H](C)O)[C@@H](C)O)[C@@H](C)CC)C(N)=O)C(=O)O)", "note": "[SEQ ID NO: (108)]", "values": [{"measurement": "EC50 hGLP-1R (cAMP formation)", "setting": "human GLP-1 receptor", "value": 2.1, "unit": "pM"}, {"measurement": "EC50 hGlucagonR (cAMP formation)", "setting": "human glucagon receptor", "value": 541, "unit": "pM"}]}, {"binder": "H[dS]QGTFTSDLSKQMESRRAQDFIEWLKSGGPSSGAPPPSK([βAla-βAla-Palmitoyl])-NH2 (N-terminus assumed; SMILES CCCCCCCCCCCCCCCC(=O)NCCC(=O)NCCC(=O)NCCCC[C@H](NC(=O)[C@H](CO)NC(=O)[C@@H]1CCCN1C(=O)[C@@H]1CCCN1C(=O)[C@@H]1CCCN1C(=O)[C@H](C)NC(=O)CNC(=O)[C@H](CO)NC(=O)[C@H](CO)NC(=O)[C@@H]1CCCN1C(=O)CNC(=O)CNC(=O)[C@H](CO)NC(=O)[C@H](CCCCN)NC(=O)[C@H](CC(C)C)NC(=O)[C@H](Cc1c[nH]c2ccccc12)NC(=O)[C@H](CCC(=O)O)NC(=O)[C@@H](NC(=O)[C@H](Cc1ccccc1)NC(=O)[C@H](CC(=O)O)NC(=O)[C@H](CCC(N)=O)NC(=O)[C@H](C)NC(=O)[C@H](CCCNC(=N)N)NC(=O)[C@H](CCCNC(=N)N)NC(=O)[C@H](CO)NC(=O)[C@H](CCC(=O)O)NC(=O)[C@H](CCSC)NC(=O)[C@H](CCC(N)=O)NC(=O)[C@H](CCCCN)NC(=O)[C@H](CO)NC(=O)[C@H](CC(C)C)NC(=O)[C@H](CC(=O)O)NC(=O)[C@H](CO)NC(=O)[C@@H](NC(=O)[C@H](Cc1ccccc1)NC(=O)[C@@H](NC(=O)CNC(=O)[C@H](CCC(N)=O)NC(=O)[C@@H](CO)NC(=O)[C@@H](N)Cc1c[nH]cn1)[C@@H](C)O)[C@@H](C)O)[C@@H](C)CC)C(N)=O)", "note": "[SEQ ID NO: (98)]", "values": [{"measurement": "EC50 hGLP-1R (cAMP formation)", "setting": "human GLP-1 receptor", "value": 5.1, "unit": "pM"}, {"measurement": "EC50 hGlucagonR (cAMP formation)", "setting": "human glucagon receptor", "value": 14.6, "unit": "pM"}]}, {"binder": "H[dS]QGTFTSDLSKQMESRRAQDFIEWLKSGGPSSGAPPPSK(6‑((4,4-diphenyl-cyclohexyloxy)-hydroxy-phosphoryloxy)‑hexanoyl)-NH2", "note": "[SEQ ID NO: (107)]", "values": [{"measurement": "EC50 hGLP-1R (cAMP formation)", "setting": "human GLP-1 receptor", "value": 9, "unit": "pM"}, {"measurement": "EC50 hGlucagonR (cAMP formation)", "setting": "human glucagon receptor", "value": 5160, "unit": "pM"}]}, {"binder": "H[dS]QGTFTSDLSKQMESEAAQDFIEWLKAGGPSSGAPPPSK([γGlu-Palmitoyl])-NH2 (N-terminus assumed; SMILES CCCCCCCCCCCCCCCC(=O)N[C@@H](CCC(=O)NCCCC[C@H](NC(=O)[C@H](CO)NC(=O)[C@@H]1CCCN1C(=O)[C@@H]1CCCN1C(=O)[C@@H]1CCCN1C(=O)[C@H](C)NC(=O)CNC(=O)[C@H](CO)NC(=O)[C@H](CO)NC(=O)[C@@H]1CCCN1C(=O)CNC(=O)CNC(=O)[C@H](C)NC(=O)[C@H](CCCCN)NC(=O)[C@H](CC(C)C)NC(=O)[C@H](Cc1c[nH]c2ccccc12)NC(=O)[C@H](CCC(=O)O)NC(=O)[C@@H](NC(=O)[C@H](Cc1ccccc1)NC(=O)[C@H](CC(=O)O)NC(=O)[C@H](CCC(N)=O)NC(=O)[C@H](C)NC(=O)[C@H](C)NC(=O)[C@H](CCC(=O)O)NC(=O)[C@H](CO)NC(=O)[C@H](CCC(=O)O)NC(=O)[C@H](CCSC)NC(=O)[C@H](CCC(N)=O)NC(=O)[C@H](CCCCN)NC(=O)[C@H](CO)NC(=O)[C@H](CC(C)C)NC(=O)[C@H](CC(=O)O)NC(=O)[C@H](CO)NC(=O)[C@@H](NC(=O)[C@H](Cc1ccccc1)NC(=O)[C@@H](NC(=O)CNC(=O)[C@H](CCC(N)=O)NC(=O)[C@@H](CO)NC(=O)[C@@H](N)Cc1c[nH]cn1)[C@@H](C)O)[C@@H](C)O)[C@@H](C)CC)C(N)=O)C(=O)O)", "note": "[SEQ ID NO: (109)]", "values": [{"measurement": "EC50 hGLP-1R (cAMP formation)", "setting": "human GLP-1 receptor", "value": 3.3, "unit": "pM"}, {"measurement": "EC50 hGlucagonR (cAMP formation)", "setting": "human glucagon receptor", "value": 277, "unit": "pM"}]}, {"binder": "HSQGTFTSDLSKQMEERRAKDFIEWLKNGGPSSGAPPPS-NH2", "note": "[SEQ ID NO: (16)]", "values": [{"measurement": "EC50 hGLP-1R (cAMP formation)", "setting": "human GLP-1 receptor", "value": 7.6, "unit": "pM"}, {"measurement": "EC50 hGlucagonR (cAMP formation)", "setting": "human glucagon receptor", "value": 2130, "unit": "pM"}]}, {"binder": "H[dS]QGTFTSDLSKQMESRRAQDFIEWLKSGGPSSGAPPPSK(Ac)-NH2", "note": "[SEQ ID NO: (105)]", "values": [{"measurement": "EC50 hGLP-1R (cAMP formation)", "setting": "human GLP-1 receptor", "value": 142, "unit": "pM"}, {"measurement": "EC50 hGlucagonR (cAMP formation)", "setting": "human glucagon receptor", "value": 614, "unit": "pM"}]}, {"binder": "H[dS]QGTFTSDLSKQMESRRAQDFIEWLKSGGPSSGAPPPK([βAla-βAla-Palmitoyl])-NH2 (N-terminus assumed; SMILES CCCCCCCCCCCCCCCC(=O)NCCC(=O)NCCC(=O)NCCCC[C@H](NC(=O)[C@@H]1CCCN1C(=O)[C@@H]1CCCN1C(=O)[C@@H]1CCCN1C(=O)[C@H](C)NC(=O)CNC(=O)[C@H](CO)NC(=O)[C@H](CO)NC(=O)[C@@H]1CCCN1C(=O)CNC(=O)CNC(=O)[C@H](CO)NC(=O)[C@H](CCCCN)NC(=O)[C@H](CC(C)C)NC(=O)[C@H](Cc1c[nH]c2ccccc12)NC(=O)[C@H](CCC(=O)O)NC(=O)[C@@H](NC(=O)[C@H](Cc1ccccc1)NC(=O)[C@H](CC(=O)O)NC(=O)[C@H](CCC(N)=O)NC(=O)[C@H](C)NC(=O)[C@H](CCCNC(=N)N)NC(=O)[C@H](CCCNC(=N)N)NC(=O)[C@H](CO)NC(=O)[C@H](CCC(=O)O)NC(=O)[C@H](CCSC)NC(=O)[C@H](CCC(N)=O)NC(=O)[C@H](CCCCN)NC(=O)[C@H](CO)NC(=O)[C@H](CC(C)C)NC(=O)[C@H](CC(=O)O)NC(=O)[C@H](CO)NC(=O)[C@@H](NC(=O)[C@H](Cc1ccccc1)NC(=O)[C@@H](NC(=O)CNC(=O)[C@H](CCC(N)=O)NC(=O)[C@@H](CO)NC(=O)[C@@H](N)Cc1c[nH]cn1)[C@@H](C)O)[C@@H](C)O)[C@@H](C)CC)C(N)=O)", "note": "[SEQ ID NO: (100)]", "values": [{"measurement": "EC50 hGLP-1R (cAMP formation)", "setting": "human GLP-1 receptor", "value": 9.6, "unit": "pM"}, {"measurement": "EC50 hGlucagonR (cAMP formation)", "setting": "human glucagon receptor", "value": 16.6, "unit": "pM"}]}]}
